Test results: the supplement of paper PMC9170038

Test system: MS2 coat protein
Test: apparent KD of MS2 coat protein; designed switch direction (-1 OFF switch, 1 ON switch): -1; higher = weaker reporter binding
Summary of the method: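 An oligonucleotide input, 200 uM small-molecule ligand, or no input was present during titration of SNAP-549-labelled MS2 coat protein, which was doubled from 0.7 or 1.5 nM to 3 µM. Designed RNA switches had been transcribed on Illumina chips by stalled E. coli RNA polymerase. Apparent KD per design is the median over clusters of curves fitted to normalised cluster fluorescence.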

[1] = Eterna round: R95, input ligand: FMN 200 uM
[2] = Eterna round: R95, input ligand: microRNA oligo, concentration not stated
[3] = Eterna round: R95, input ligand: none
[4] = input ligand: microRNA oligo, concentration not stated

| Sequence | apparent KD of MS2 coat protein [1] [nM] | apparent KD of MS2 coat protein [2] [nM] | apparent KD of MS2 coat protein [3] [nM] | apparent KD of MS2 coat protein (input ligand: FMN 200 uM) [nM] | apparent KD of MS2 coat protein (input ligand: none) [nM] | apparent KD of MS2 coat protein [4] [nM] |
| --- | --- | --- | --- | --- | --- | --- |
| GGGAUGUGAGGAUAUCGAGGUGCAAAGCACCUAAAAGAAAACGAGAAGGCACAUGAGGAUCACCCAUGUAAUAC [Xeinle] (puzzle: Exclusion 4) | 105 | 26 | 26 |  |  |  |
| GGGCCCGGAGGAUAUACAAUGCGCGCGCGAAAGUGUGUGUUACAUGAGGAUCACCCAUGUAGAAGGCCGGGCCC [-39.9, -36.7 kcal A 24%, 6,0] (Eterna round: R97, puzzle: Exclusion 2) |  |  |  | 39.4 | 16.7 |  |
| GGGCCCGGAGGAUAUACAUGAGGAUCACCCAUGUAGGGCCCGGGUAUUUUUGGGCCCUGUAGAAGGCCGGGCCC [-41.6, -38.7 kcal, A 19%, 5c,0] (Eterna round: R97, puzzle: Exclusion 3) |  |  |  | 13 | 12.6 |  |
| GGGUGACAUGAGGAUCACCCAUGUCAGGAUAUGAUUCUGCUUGGGAAACCGAGUAGAAUCAGAAGGGACAUCCC (Eterna round: R97, puzzle: Exclusion 1) |  |  |  | 324 | 54.3 |  |
| GGGUGACAUGAGGAUCACCCAUGUCAGGAUAUUGAUCGUGAUCGGAAAUGAUCGUGAUCGAGAAGGGACUGCCC [-27.4, -26.4 kcal, A 27% sequence 2] (Eterna round: R97, puzzle: Exclusion 1) |  |  |  | 224 | 52 |  |
| GGGUUACAUGAGGAUCACCCAUGUGAGGAUAUGAUACUAUGUACUUCGGUACAUAGUAUCAGAAGGCACAUCCC [Ex1-3: 20] (puzzle: Exclusion 1) |  | 31.4 |  |  |  |  |
| GGUACUAACACGAGAGUGUUAGUACUAUAAGCUUGUGUUACAUGAGGAUCACCCAUGUCCUCAUAGGCUCGUCUUAA [Mat - Sensor v3 - Turn-off var 2 - D81] (puzzle: Sensor v3, turn-off variant 2) | 82.4 | 61 | 82.4 |  |  |  |
| GGUACUAUCACCUGAGUGGUAGUGCAAUAAGCUUGUGAUACAUGAGGAUCACCCAUGUCCUCAUUUGCUCGUCUUAU [JL-sv3-2.26 JL mod] (puzzle: Sensor v3, turn-off variant 2) | 533 | 516 | 839 |  |  |  |
| GGUACUCAAAGAGUACCAAUACGAACAUGAGGAUCACCCAUGUAGGAUAUGCUACUCAAAGAGUAGCAGAAGGAUAUGAACCUU [Far Half Aptamer v9] (Eterna round: R96, puzzle: Exclusion NG 3) |  |  |  | 22.5 | 23.8 | 15.5 |
| GGUACUCAAAGAGUACCAAUACGAACAUGAGGAUCACCCAUGUAGGAUAUGCUACUCAAAGAGUAGCAGAAGGAUAUGAGCCUC [Far Half Aptamer v11] (Eterna round: R96, puzzle: Exclusion NG 3) |  |  |  | 663 | 334 | 319 |
| GGUACUCAUGUGAGGAUAUGCUCGAAUGCAGACGAGCAGAAGGUACAUGAGGAUCACCCAUGUACCAUAAAGUA [Eternabot (Original) Solution 1] (Eterna round: R97, puzzle: Brourd's mod of Exclusion 4) |  |  |  | 23.6 | 13.1 |  |
| GGUAGUAUGAGUAGUCCUCAUUGAAGAGAUUAGUAAGAAACAUGAGGAUCACCCAUGUUAGAACAAGCUUUUGCUCA [JR_Sv3TOV2_Sub004] (puzzle: Sensor v3, turn-off variant 2) | 113 | 45.7 | 142 |  |  |  |
| GGUCAAGAACAGCUCCGCGCUGCCCUUGACCGCUCAUUUACAUGAGGAUCACCCAUGUUUUUUGCUUGUCUUGUUUC [Bebiesgebe] (puzzle: Sensor v3, turn-off variant 2) | 20 | 127 | 22.6 |  |  |  |
| GGUCAAGAGCAGAUCCGCGCUGCUAUUGACCGCUCAUUUACAUGAGGAUCACCCAUGUUUUUUGCUCGUCUUAUUAC [Biinedmaa] (puzzle: Sensor v3, turn-off variant 2) | 19.4 | 77.7 | 18.7 |  |  |  |
| GGUCAGACGGUAGGAUAUCCAUAUCGAGUGACCCUUUUAUAACAUGAGGAUCACCCAUGUCGGUGGGAGAAGGGCCGUACGGCG [salish99_ExNG02_R04_003] (Eterna round: R96, puzzle: Exclusion NG 2) |  |  |  | 445 | 401 | 304 |
| GGUCAUAGGUAAGGAUAUGAAGAUCUGGUGGUGACAUGAGGAUCACCCAUGUGAAAACGAUGAGAUCAGAAGGUACAAUAUGAA [AK ExNG2-4.1] (Eterna round: R96, puzzle: Exclusion NG 2) |  |  |  | 72.7 | 86.4 | 49.1 |
| GGUCCACAUGAGGAUCACCCAUGUAAUAACAUGCAGCGCAGGAAGGAUAUGCCCGAACAAAGCCAGCAGAAGGUCCAUUAACAU [Eternabot solution 7] (Eterna round: R96, puzzle: Exclusion NG 3) |  |  |  | 166 | 128 | 84.5 |

| Sequence | apparent KD of MS2 coat protein [1] [nM] | apparent KD of MS2 coat protein [2] [nM] | apparent KD of MS2 coat protein [3] [nM] | apparent KD of MS2 coat protein (input ligand: FMN 200 uM) [nM] | apparent KD of MS2 coat protein (input ligand: none) [nM] | apparent KD of MS2 coat protein [4] [nM] |
| --- | --- | --- | --- | --- | --- | --- |
| GGUCCACGAGGAUAUCGAUUUUAGUACAUGAGGAUCACCCAUGUUGUCCAGGUUUCGAUUCGAGAAGGCGUGGGCC [LRO-Ex5-03] (puzzle: Exclusion 5) |  | 20.3 |  |  |  |  |
| GGUCGUUUAGUGAGGAUAUGCAGCGUCAUAGCGCAGCAGAAGGCACAUGAGGAUCACCCAUGUCCUCCCAAAAG [Eternabot (L1) Solution 9] (Eterna round: R97, puzzle: Brourd's mod of Exclusion 4) |  |  |  | 253 | 18.9 |  |
| GGUCUACAUGAGGAUCACCCAUGUAAGGAUAUCGUCACUGGAGCCUCGGCUCCAGUGACGAGAAGGUGCAUAAU [E1/11-A2] (Eterna round: R97, puzzle: Exclusion 1) |  |  |  | 48.9 | 36.6 |  |
| GGUCUGCGAGGAUAUACAUGAGGAUCACCCAUGUGCGAGUUACUAGUGAGGUCGGUUGGUAGAAGGCGCGGACG [JL-ex3-2.09 salish99 mod] (puzzle: Exclusion 3) | 69.3 | 52.3 | 32.9 |  |  |  |
| GGUGAAGCAGGAUAUGUGCUGGCAUACAUGAGGAUCACCCAUGUCAUGUAGGAACCACGUAUAGAAGGGCUUCACC [Exclusion 5 (FMN-MS2 slide v.10)] (Eterna round: R97, puzzle: Exclusion 5) |  |  |  | 50.7 | 28.1 |  |
| GGUGAGCGAGGAUAUACAUGAGGAUCACCCAUGUGAGAGAAUAAAGUGAGGAAGAAAAGUAGAAGGCGCGAACG [Mat - Exclusion 3 - Mod of Salish D47] (puzzle: Exclusion 3) | 91.4 | 37.8 | 11.9 |  |  |  |
| GGUGAGCUAGGAUAUGCUUUGGGAACGCAUUCCUUCGAUAAACUUGAGGAUCACCCAAGUAGAAGGAGCUUGCC [salish99_ex2_r4_029] (Eterna round: R97, puzzle: Exclusion 2) |  |  |  | 158 | 34 |  |
| GGUGAGCUAGGAUAUGCUUUGGGCUCGCAUUCCUUCGAUAAACUUGAGGAUCACCCAAGUAGAAGGAGCUUGCC [salish99_ex2_r4_032] (Eterna round: R97, puzzle: Exclusion 2) |  |  |  | 23.3 | 15.8 |  |
| GGUGCGUUUGUGAGGAUAUGCUGGUCCUUGGAUCCGCAGAAGGCACAUGAGGAUCACCCAUGUGGUGUCGUACC [salish99_Bmod_Ex4_034] (puzzle: Brourd's mod of Exclusion 4) |  | 199 |  |  |  |  |
| GGUGUACUAGUCAGGAUAUGAUUAAUACCAAAGAAUCAGAAGGGACAUGAGGAUCACCCAUGUAAAGAAGGAGA [BmEX4 A.23] (Eterna round: R97, puzzle: Brourd's mod of Exclusion 4) |  |  |  | 158 | 32.5 |  |
| GGUGUGCUAGGAUAUGCUUUGGGCUCGCUUUCCUUCGUUUUACUUGAGGAUCACCCAAGUAGAAGGAGCUUGCC [salish99_ex2_r4_037] (Eterna round: R97, puzzle: Exclusion 2) |  |  |  | 13.3 | 11.6 |  |
| GGUGUGCUAGGAUAUGCUUUGGGCUCGCUUUCCUUCGUUUUACUUGAGGAUCACCCAAGUAGAAGGUGCUUGCC [salish99_ex2_r4_038] (Eterna round: R97, puzzle: Exclusion 2) |  |  |  | 13 | 13 |  |
| GGUUAUUGCAAGGAUAUGCUUUUUUUUUAUAUUGCAGAAGGUGCAACAUGAGGAUCACCCAUGUUGGAGGGUUU [JR_E6_Sub022] (puzzle: Exclusion 6) |  | 26 |  |  |  |  |
| GGUUCGAGAGUAAGGAUAUCGGUCUGCGCGAGUGACGAGAAGGUACAUGAGGAUCACCCAUGUCGAGGGAUCAC [Eternabot (L2) Solution 23] (Eterna round: R97, puzzle: Brourd's mod of Exclusion 4) |  |  |  | 35.8 | 34.9 |  |
| GGUUCGUGAGGAUAUGUGGCUUCGAUCGUGCGAAGAAGGCUACAGAAGGCACAUGAGGAUCACCCAUGUUCGUC [salish99_ex4_r4_228] (Eterna round: R97, puzzle: Exclusion 4) |  |  |  | 241 | 62.1 |  |
| GGUUGACAUGAGGAUCACCCAUGUGAGGAUAUGCGAGAGAAAAAAGUGAGGAAGGUUUGCAGAAGGCGCUGUCG [salish99-ex1_r3_008] (puzzle: Exclusion 1) | 50.2 | 115 | 81.2 |  |  |  |
| GGUUGACAUGAGGAUCACCCAUGUGAGGAUAUGCGAGAGAAAAAAGUGAGGAAGUUAAGCAGAAGGCGCUGUCG [salish99-ex1_r3_005] (puzzle: Exclusion 1) | 89.5 | 78 | 307 |  |  |  |
